Source: paper PMC9650048

How the values were obtained:
[1] = target: histone deacetylase 1 (HDAC1), Xenopus (Xenopus laevis (endogenous in egg nucleoplasmic extract)); experiment: co-IP; sequential IPs from NPE diluted 5x in ELB (10 mM Hepes-KOH pH 7.7, 2.5 mM MgCl2, 50 mM KCl, 250 mM sucrose), serum or antibody on Protein-A Sepharose, 4 °C 120 min, three washes; first round HDAC1 or HDAC2 IP, second round the converse antibody on the supernatant; supernatant and pellet by Western blot
[2] = target: histone deacetylase 1 (HDAC1), Xenopus (Xenopus laevis (endogenous in egg nucleoplasmic extract)); experiment: immunodepletion (co-depletion), Western blot of the depleted extract; antibody on Protein-A Sepharose incubated with NPE at 4 °C for 1 h over two rounds; depleted extract blotted

percent of HDAC2 removed by the HDAC1 IP [1]: 50% | percent of HDAC2 codepleted with HDAC1 [2]: 50%
Substance: histone deacetylase 2 (HDAC2), Xenopus (enzyme)
